Source: patent publication US20080220450A1, “Population Based Prediction Methods for Immune Response Determinations and Methods for Verifying Immunological Response Data” (Danisco US, Inc., Genencor Division, priority 2004, published 2008)

Molecular target: HLA-DR6(13) (human)
Test: competition assay against a standard peptide on purified HLA class II

## B. amyloliquifaciens subtilisin BPN' Y217L epitope peptide, amino acids 70-84 (from UniProt P00782 177-191)
  IC50: 0.69 nM
